# Results published in patent US20220259296A1 (Boehringer Ingelheim, published 2022).
# B1: M0228 (VHH)
# VHH: EVQLVESGGGLVQAGGSLRLSCAASGRTINDYTMGWFRQAPGKDREFVSAINWRGSSTYYADSVKGRFTISRDNAKKTIYLQMNLLKPEDTAVYYCARQVSPYVELTATAAYWGQGTQVTVSS
# notes: Wild-type llama VHH domain; also called anti-C3 antibody M0228
# B2: M0123 (antibody, V domains shown)
# VH: QSVKESEGRLVTPGTPLTLTCTASGFTIGSYHMSWVRQAPGKGLEWIGIIYTDGNTDYANWAKGRFTISKTSTTMDLKMTSLTAADTATYFCARRGYADYGYTFNLWGQGTLVTISS
# VL: ELVLTQPASVQVNLGQTVSLTCTADTLSRNYASWYQQKPGQAPVLLIYRDTSRPSGVPDRFSGSSSGNTATLTISGAQAGDEADYYCATGDGSGSSYQFVFGGGTQLTVTG
# notes: Wild-type rabbit VH/VL from a rabbit scFv phage library; A separate 'scFv-derivative of M0123 (26 kDa)' was used only in the Bruch's membrane diffusion test; also called anti-C3 antibody M0123
# B3: M0124 (antibody, V domains shown)
# VH: QSVKESGGRLVTPGTPLTLTCTVSGIDLSRYWMNWVRQAPGKGLEWIGYITTNDKTYYANWAKGRYTISKTSSTTVDLKMTSLTTEDTATYFCARRSSGAYDIWGPGTLVTISS
# VL: QPVLTQSPSASATLGASAKLTCTLSSAHKTYYIEWYQQQQGEAPRYLMQLKSDGTYTKGTGVPDRFSGSSSGADRYLIISSVQAEDEADYICGVTGGNVYVFGGGTQLTVTG
# notes: Wild-type rabbit VH/VL from a rabbit scFv phage library; ELISA detection used an anti-human Kappa HRP or an anti-His Tag HRP antibody; also called anti-C3 antibody M0124
# B4: M0251 (VHH)
# VHH: EVQLVESGGGLVQAGGSLRLSCVASGHTFGNWAMGWFRQAPGKEREFVGAIRWSVGTTNYRDSVKGRFAISRDNARNTVYLQMNRLKPEDTAVYYCAAGTPFVLARINGYDYWGQGTQVTVSS
# notes: Wild-type llama VHH domain; also called anti-C3 antibody M0251
# B5: M0122 (antibody, V domains shown)
# VH: QSVKESGGRLVTPGTPLTLTCTVSGFSLYNYAMNWVRQAPGKGLEWIGIINTDGNTNYASWAKGRFTISTTSSTTVDLKITSPTTEDTATYFCPRAVGYHHHALDPWGPGTLVTVSS
# VL: ELVLTQSPSVSAALGASAKLTCTLSSAHKTYTIDWYQQQQGEAPRYLMQLKSDGSYTKGTGVPDRFSGSSSGADRYLIIPSVQADDEADYYCGTDYGGGYVFGGGTQLTVTG
# notes: Wild-type rabbit VH/VL from a rabbit scFv phage library; ELISA detection used an anti-human Kappa HRP or an anti-His Tag HRP antibody; also called anti-C3 antibody M0122
# How the values were obtained:
# human complement C3 [1] = target: T1, human complement C3 (human, UniProt P01024 23-1663); experiment: direct ELISA, plate coated with purified native human C3
# T1 construct: mature; Native plasma C3 is processed from one precursor into a beta and an alpha chain; also called native human C3; complement component 3
# T1 sequence (P01024 23-1663): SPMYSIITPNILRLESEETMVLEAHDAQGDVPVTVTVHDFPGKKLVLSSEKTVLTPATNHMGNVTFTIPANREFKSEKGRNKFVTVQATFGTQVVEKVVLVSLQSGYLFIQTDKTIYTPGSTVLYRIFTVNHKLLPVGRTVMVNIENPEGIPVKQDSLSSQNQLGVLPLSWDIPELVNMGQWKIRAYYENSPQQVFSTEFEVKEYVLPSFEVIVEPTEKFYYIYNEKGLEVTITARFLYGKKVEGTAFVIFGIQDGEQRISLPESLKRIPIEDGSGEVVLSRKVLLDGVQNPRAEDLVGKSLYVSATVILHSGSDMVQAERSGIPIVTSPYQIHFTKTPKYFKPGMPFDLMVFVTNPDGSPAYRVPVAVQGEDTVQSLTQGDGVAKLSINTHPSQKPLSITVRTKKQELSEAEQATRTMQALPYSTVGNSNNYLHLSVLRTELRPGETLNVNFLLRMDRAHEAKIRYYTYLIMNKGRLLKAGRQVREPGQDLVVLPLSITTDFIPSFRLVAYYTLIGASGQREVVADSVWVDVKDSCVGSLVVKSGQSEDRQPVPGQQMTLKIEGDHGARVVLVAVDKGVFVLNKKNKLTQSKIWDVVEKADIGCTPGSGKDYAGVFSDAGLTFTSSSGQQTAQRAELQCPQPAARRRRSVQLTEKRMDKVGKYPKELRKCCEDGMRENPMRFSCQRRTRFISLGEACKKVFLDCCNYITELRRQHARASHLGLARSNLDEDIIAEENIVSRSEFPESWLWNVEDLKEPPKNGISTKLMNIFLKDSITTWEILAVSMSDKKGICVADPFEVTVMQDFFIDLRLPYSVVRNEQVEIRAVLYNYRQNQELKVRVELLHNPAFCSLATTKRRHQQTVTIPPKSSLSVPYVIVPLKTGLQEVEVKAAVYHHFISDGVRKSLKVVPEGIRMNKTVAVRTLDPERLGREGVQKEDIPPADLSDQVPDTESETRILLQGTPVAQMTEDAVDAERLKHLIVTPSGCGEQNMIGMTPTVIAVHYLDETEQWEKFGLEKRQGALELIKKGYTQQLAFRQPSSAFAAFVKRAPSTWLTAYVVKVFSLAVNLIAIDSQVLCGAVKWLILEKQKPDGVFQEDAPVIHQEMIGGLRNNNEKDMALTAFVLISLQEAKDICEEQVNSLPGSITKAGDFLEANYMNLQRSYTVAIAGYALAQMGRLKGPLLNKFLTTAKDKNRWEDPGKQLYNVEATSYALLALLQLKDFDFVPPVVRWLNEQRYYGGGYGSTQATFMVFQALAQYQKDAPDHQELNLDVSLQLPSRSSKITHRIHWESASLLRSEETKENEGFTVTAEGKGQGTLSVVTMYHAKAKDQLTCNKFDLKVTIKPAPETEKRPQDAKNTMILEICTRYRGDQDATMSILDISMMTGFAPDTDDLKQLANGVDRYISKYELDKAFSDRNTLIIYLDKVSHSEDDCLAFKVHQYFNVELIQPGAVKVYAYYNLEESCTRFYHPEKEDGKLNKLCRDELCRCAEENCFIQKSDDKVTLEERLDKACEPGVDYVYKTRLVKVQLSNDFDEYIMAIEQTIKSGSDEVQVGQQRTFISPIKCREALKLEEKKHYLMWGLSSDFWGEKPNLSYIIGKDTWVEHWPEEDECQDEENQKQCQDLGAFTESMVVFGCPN
# Experimental: (§1) M0122, M0124 and M0228 were evaluated for their ability to bind both human C3 and C3b in a direct binding ELISA assay (FIG. 8A and FIG. 8B). Briefly, 96 well ELISA plates were coated with purified native human C3 or C3b (Complement Technology, A113 and A114). Serial dilutions of antibody molecules were added to the plate and detected by a rabbit anti-human Kappa HRP antibody (Abcam, ab202549) or a rabbit anti-His Tag HRP antibody (Abcam, ab1187). M0122, M0124 and M0228 show high affinity binding to both human C3 and C3b.
# human complement C3 [2] = target: T1, human complement C3; experiment: cell-based or functional assay
# human complement C3b = target: T2, human complement C3b (human, UniProt P01024 23-667; P01024 749-1663); experiment: direct ELISA, plate coated with purified human C3b
# T2 construct: domain: C3b; Cleavage product of C3 (C3 without C3a)
# T2 sequence (P01024 23-667 limits assumed, chain 1 of 2): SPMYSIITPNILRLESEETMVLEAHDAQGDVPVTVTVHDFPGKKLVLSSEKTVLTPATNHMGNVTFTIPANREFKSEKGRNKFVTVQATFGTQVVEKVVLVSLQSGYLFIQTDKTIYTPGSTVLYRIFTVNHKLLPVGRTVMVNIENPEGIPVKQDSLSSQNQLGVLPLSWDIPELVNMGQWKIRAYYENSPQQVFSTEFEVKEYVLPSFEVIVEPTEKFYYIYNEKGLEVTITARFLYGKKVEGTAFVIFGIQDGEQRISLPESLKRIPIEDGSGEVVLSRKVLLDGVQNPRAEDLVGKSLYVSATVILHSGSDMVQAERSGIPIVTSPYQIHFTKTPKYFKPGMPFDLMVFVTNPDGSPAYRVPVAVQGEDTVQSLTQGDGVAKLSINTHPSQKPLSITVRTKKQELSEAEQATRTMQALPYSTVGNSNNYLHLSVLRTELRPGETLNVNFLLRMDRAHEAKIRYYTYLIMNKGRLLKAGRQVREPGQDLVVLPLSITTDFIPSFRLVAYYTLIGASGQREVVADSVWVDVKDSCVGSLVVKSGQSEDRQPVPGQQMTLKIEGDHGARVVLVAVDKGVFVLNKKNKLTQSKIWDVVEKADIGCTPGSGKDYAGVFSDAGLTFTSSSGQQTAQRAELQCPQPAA
# T2 sequence (P01024 749-1663 limits assumed, chain 2 of 2): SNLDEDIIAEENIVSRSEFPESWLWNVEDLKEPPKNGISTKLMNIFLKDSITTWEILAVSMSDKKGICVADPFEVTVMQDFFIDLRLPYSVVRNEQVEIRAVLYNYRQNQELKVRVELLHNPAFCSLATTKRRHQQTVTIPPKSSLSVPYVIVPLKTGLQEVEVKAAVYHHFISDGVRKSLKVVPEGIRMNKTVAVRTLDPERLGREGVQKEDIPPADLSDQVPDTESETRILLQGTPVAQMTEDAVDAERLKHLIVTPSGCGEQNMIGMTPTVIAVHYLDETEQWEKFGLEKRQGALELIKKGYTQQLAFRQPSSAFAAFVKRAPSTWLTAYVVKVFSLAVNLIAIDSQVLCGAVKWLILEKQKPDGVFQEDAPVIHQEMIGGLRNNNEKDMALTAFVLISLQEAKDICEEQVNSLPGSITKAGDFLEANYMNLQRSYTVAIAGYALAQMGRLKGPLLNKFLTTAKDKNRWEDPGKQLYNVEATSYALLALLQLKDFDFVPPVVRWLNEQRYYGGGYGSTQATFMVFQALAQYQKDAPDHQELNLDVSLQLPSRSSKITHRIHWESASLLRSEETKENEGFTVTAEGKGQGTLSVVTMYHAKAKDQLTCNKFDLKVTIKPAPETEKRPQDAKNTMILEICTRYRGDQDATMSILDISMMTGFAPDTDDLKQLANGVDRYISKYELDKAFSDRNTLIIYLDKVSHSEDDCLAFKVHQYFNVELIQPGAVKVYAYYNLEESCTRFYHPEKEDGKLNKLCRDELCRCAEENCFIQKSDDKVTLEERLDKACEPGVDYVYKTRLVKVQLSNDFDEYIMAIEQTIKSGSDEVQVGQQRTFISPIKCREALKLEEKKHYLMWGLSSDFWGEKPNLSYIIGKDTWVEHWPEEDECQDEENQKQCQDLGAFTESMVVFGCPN
# Experimental: as §1
# human complement C3 [3] = target: T1, human complement C3; experiment: competition ELISA on human C3; competitor: biotinylated M0123 (panel title 'Competition with M0123')
# Experimental: (§2) M0251, M0228, M0122, M0123 and M0124 were tested in a pairwise combinatorial manner to identify those that target the same region (epitope) on C3. Briefly, one antibody was labelled via biotinylation and incubated together with other antibody clones in a C3 binding ELISA. Those anti-C3 antibodies that competed for the same binding region were considered to share similar epitopes and therefore to have similar functions. This information enables to reduce the number of potential antibody candidates while maintaining epitope diversity. Out of the five antibodies inhibiting all three complement pathways, M0251, M0228 and M0123 were considered to share the same epitope on C3 (FIG. 7D). Inhibiting leads were assumed to bind three different epitopes on C3 (FIG. 7A-7D).
# human complement C3 [4] = target: T1, human complement C3; experiment: biolayer interferometry, human C3
# cynomolgus monkey C3 = target: T3, cynomolgus monkey C3 (cynomolgus monkey (Macaca fascicularis)); experiment: ELISA, cyno C3 captured from cynomolgus serum by coated polyclonal goat antiserum
# T3 construct: mature; Native protein from serum; also called cyno C3; cynomolgus C3
# Experimental: Antibodies identified as capable of inhibiting all three complement pathways were assessed for their ability to bind cynomolgus monkey C3 in ELISA. Briefly, 96 well ELISA plates were coated with polyclonal goat antiserum deemed to be cross-reactive to cyno C3 and followed by a secondary association with a custom preparation of cynomolgus monkey serum (BioIVT, NB-151558). Serial dilutions of the antibody molecules were added to the ELISA plate and antibodies binding to cyno C3 were detected with a rabbit anti-human Kappa HRP antibody (Abcam, ab202549) or a mouse anti-His Tag HRP antibody (R&D Systems, MAB050H). Leads M0122, M0124 and M0251 show binding in a dose response manner to cynomolgus monkey C3.
# human complement C3 [5] = target: T1, human complement C3; experiment: competition ELISA on human C3; competitor: biotinylated M0251 (panel title 'Competition with M0251')
# Experimental: as §2
# human complement C3 [6] = target: T1, human complement C3; experiment: competition ELISA on human C3; competitor: biotinylated M0122 (panel title 'Competition with M0122')
# Experimental: as §2
Binder,EC50 (read off the curve) (human complement C3 [1]) [µg/mL],"inhibition of classical, lectin and alternative complement pathways in human serum (Wieslab Complement system Screen, C5b-C9 neoantigen) (human complement C3 [2]) [%]",EC50 (read off the curve) (human complement C3b) [µg/mL],IC50 (read off the curve) (human complement C3 [3]) [nM],Kd (human complement C3 [4]) [nM],koff (human complement C3 [4]) [s⁻¹],kon (human complement C3 [4]) [M⁻¹ s⁻¹],EC50 (read off the curve) (cynomolgus monkey C3) [nM],IC50 (read off the curve) (human complement C3 [5]) [nM],IC50 (read off the curve) (human complement C3 [6]) [nM]
B1,~0.03,≥ 90,~0.03,~2,0.199,0.000111,557000,,,
B2,,≥ 90,,~9,,,,,,
B3,~0.07,≥ 90,~0.04,,0.0124,5.18e-05,4.16e+06,~3,,
B4,,≥ 90,,~20,,,,~5,~4,
B5,~0.03,≥ 90,~0.04,,0.0528,4.7e-06,89000,~2,,~20
